Assay [1] concerns the target Human ST2-fc (human) (UniProt Q01638). Kind of assay: competition ELISA: human ST2-fc coated, antibody titrated in a mixture with human IL33-his (blocked ligand), bound IL33-his detected with an anti-His secondary antibody, OD450-OD650 [continued), 9-5]. Background: In an ELISA, binding on a coated surface is turned into a signal by an enzyme label.
For assay [2] the target is unchanged. Nature of the assay: competition ELISA: human ST2-fc coated, antibody titrated in a mixture with human IL33-his (blocked ligand), bound IL33-his detected with an anti-His secondary antibody, OD450-OD650 [continued), 9-7].
Assay [3] shares this target. Nature of the assay: competition ELISA, coated ST2-fc, competitor IL33-his.
Assay [4] shares this target. Kind of assay: competition ELISA: human ST2-fc coated, antibody titrated in a mixture with human IL33-his (blocked ligand), bound IL33-his detected with an anti-His secondary antibody, OD450-OD650 [continued), 9-4].
Assay [5] concerns the target T1, ST2 on the effector cells (KU812, KU812/NF-κB-1#, HUVEC, HMC-1) (human, UniProt Q01638 19-556).
T1 sequence (looked up): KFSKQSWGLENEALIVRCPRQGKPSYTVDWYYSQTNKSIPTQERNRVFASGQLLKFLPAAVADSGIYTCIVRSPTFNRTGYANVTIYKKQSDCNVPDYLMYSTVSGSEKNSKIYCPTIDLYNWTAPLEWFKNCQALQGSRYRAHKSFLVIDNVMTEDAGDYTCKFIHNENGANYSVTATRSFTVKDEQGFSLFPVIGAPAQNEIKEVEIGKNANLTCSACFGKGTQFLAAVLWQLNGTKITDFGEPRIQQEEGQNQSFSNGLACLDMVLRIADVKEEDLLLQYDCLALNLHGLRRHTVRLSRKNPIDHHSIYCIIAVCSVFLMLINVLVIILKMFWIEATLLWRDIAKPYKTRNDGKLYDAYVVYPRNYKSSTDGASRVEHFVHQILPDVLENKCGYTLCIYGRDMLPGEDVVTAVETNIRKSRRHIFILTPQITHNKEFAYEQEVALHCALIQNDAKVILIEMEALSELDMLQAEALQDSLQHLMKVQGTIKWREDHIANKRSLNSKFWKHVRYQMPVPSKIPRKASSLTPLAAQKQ
Nature of the assay: cell-based or functional assay.

For assay [6], the target named is T1, ST2 on the effector cells (KU812, …). Nature of the assay: cell-based or functional assay. The source holds these as a separate data set.
The target is the same in assay [7]. Kind of assay: cell-based or functional assay. This is another data set of the same source.
For assay [8], the target named is T2, Human ST2-his (human, UniProt Q01638-2 19-328, limits assumed).
T2 construct: Expressed in CHO-K1; The printed range starts at Met1; also called human ST2 fused with a 6-histidine tag at the C-terminus
T2 sequence: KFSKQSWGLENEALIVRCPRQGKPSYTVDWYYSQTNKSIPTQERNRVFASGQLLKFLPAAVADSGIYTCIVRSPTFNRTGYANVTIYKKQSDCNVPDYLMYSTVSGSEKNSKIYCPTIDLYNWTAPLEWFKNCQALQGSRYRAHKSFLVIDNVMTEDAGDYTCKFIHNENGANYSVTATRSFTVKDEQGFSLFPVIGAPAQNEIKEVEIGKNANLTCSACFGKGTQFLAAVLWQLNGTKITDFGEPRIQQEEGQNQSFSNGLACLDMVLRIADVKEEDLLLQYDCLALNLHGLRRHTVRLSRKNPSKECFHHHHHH
Kind of assay: SPR Biacore X100, antibody captured on protein A chip, human ST2-his injected, pH 7.4. In outline: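 Antibody (2 µg/mL) captured 60 s on protein A; human ST2-his injected at six 2-fold dilutions from 20 nM, association 180 s, dissociation 700 s. Kinetics fitted to 1:1 binding model; glycine pH 2.0 regeneration.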
(Surface plasmon resonance follows binding to a sensor surface in real time, without labels.)

Assay [9] has as its target T1, ST2 on the effector cells (KU812, …). Kind of assay: cell-based or functional assay. The source holds these as a separate data set.
For assay [10] the target is unchanged. Kind of assay: cell-based or functional assay. The source holds these as a separate data set.
For assay [11], the target named is T2, Human ST2-his. Kind of assay: SPR Biacore X100, ratio of kd at pH 5.5 to kd at pH 7.4. Here is the method:
(§1) The experiment on the interaction between the anti-human ST2 antibodies and human ST2-his was performed using Biacore X100.
(§2) Each anti-human ST2 antibody was diluted to 2 µg/mL and captured on the surface of a protein A chip for a capture time of 60 s. Following the antibody capture, a solution of human ST2-his (2-fold gradient dilution from a starting concentration of 20 nM, to obtain 6 concentrations in total) was injected. Association was monitored for 180 s and dissociation was monitored for 700 s, and the sensor surface was regenerated by injecting a solution of glycine at pH 2.0. Kinetic data were analyzed using a simple 1:1 binding model.

For assay [12], the target named is T1, ST2 on the effector cells (KU812, …). Kind of assay: cell-based or functional assay. The source holds these as a separate data set.
Assay [13] addresses Human ST2-fc (human) (UniProt Q01638). Nature of the assay: competition ELISA, coated ST2-fc, competitor IL33-his. This is another data set of the same source.
Assay [14] deals with T2, Human ST2-his. Kind of assay: SPR Biacore X100, antibody captured on protein A chip, human ST2-his injected, dissociation at pH 5.5. How it is done: as §1, §2
Assay [15] addresses T2, Human ST2-his. Kind of assay: SPR Biacore X100, antibody captured on protein A chip, human ST2-his injected, pH 7.4; pH 7.4. Here is the method: as §1, §2

Where two headings read alike, the source gives them in different places.

For the molecule Control antibody CNTO7160, the IC50 (read off the curve) in [1] came out at 1 µg/mL; in assay [2] it was 0.9 µg/mL. Besides, the Maximum inhibition rate in assay [3] stood at 92.5%.

B1: 5888-153-H2L0 (antibody, human IgG4 S228P, kappa, V domains shown)
VH: QVQLVQSGAEVKKPGASVKVSCKASGYTFTDYELHWVRQAPGQGLEWMGTIDPETGDTVYNQKFKARVTMTADKSTSTAYMELSSLRSEDTAVYYCTRAFYNDYDEGFAYWGQGTLVTVSS
VL: EIVLTQSPATLSLSPGERATLSCSVSSSVSYMHWYQQKPGQAPRLLIYDTSKLASGIPARFSGSGSGTDFTLTISSLEPEDFAVYYCQQWNSSPLTFGGGTKVEIKR
With B1, the IC50 (read off the curve) in assay [4] amounted to 3 µg/mL.

B2: 5888-153-H2L1 (antibody, human IgG4 S228P, kappa, V domains shown)
VH: QVQLVQSGAEVKKPGASVKVSCKASGYTFTDYELHWVRQAPGQGLEWMGTIDPETGDTVYNQKFKARVTMTADKSTSTAYMELSSLRSEDTAVYYCTRAFYNDYDEGFAYWGQGTLVTVSS
VL: EIVMTQSPATLSLSPGERATLSCSVSSSVSYMHWYQQKPGQAPRRLIYDTSKLASGIPARFSGSGSGTDYTLTISSLEPEDAAVYYCQQWNSSPLTFGGGTKVEIKR
For B2, in assay [4], the IC50 (read off the curve) worked out at 2 µg/mL.

B3: 5888-153-H3L2 (antibody, human IgG4 S228P, kappa, V domains shown)
VH: QVQLVQSGAEVKKPGASVKVSCKASGYTFTDYELHWVRQAPGQGLEWMGTIDPETGDTVYNQKFKARVTMTADKSTSTAYMELSSLRSEDTAVYYCTRAFYNDYDDAFAYWGQGTLVTVSS
VL: EIVMTQSPATLSLSPGERATLSCSVSSSVSYMHWYQQKPGQAPRRLIYDTSKLASGIPARFSGSGSGTDYTLTISSLEPEDAAVYYCQQWNTSPLTFGGGTKVEIKR
notes: Humanized antibody
By Kd is commonly meant the concentration at which binding is half-saturated. For orientation: koff means the rate constant with which the complex falls apart. As usually defined, the kon is the second-order rate constant of association. The low end stands for slower complex formation, the high end for faster complex formation. Broadly, the IC50 is the concentration at which inhibition is half-maximal. For B3, in assay [5], the “IC50, inhibition of HMC-1 IL8 production promoted by IL33” value was 0.0944 µg/mL; the “Maximum inhibition rate, HMC-1 IL8 production by IL33” value turned out to be 83.3%; the “Relative activity, HMC-1 IL8 production by IL33” value came out at 107%. Besides, in [6], the “IC50, inhibition of KU812-IL5 production promoted by reduced IL33” value was found to be 0.522 µg/mL; the “Maximum inhibition rate, KU812-IL5 production by reduced IL33” value is 87.2%; the “Relative activity, KU812-IL5 production by reduced IL33” value worked out at 281%. In assay [7], the “IC50, inhibition of HUVEC-IL6 production promoted by IL33” value is 3.69 µg/mL; the “Maximum inhibition rate, HUVEC-IL6 production by IL33” value was determined as 91.8%; the “Relative activity, HUVEC-IL6 production by IL33” value is 73.9%. In assay [8], this molecule came in with a Kd of 104 pM, a koff of 0.000171 s⁻¹ and a kon of 1.65e+06 M⁻¹ s⁻¹. Also, in assay [9], the “IC50, inhibition of KU812-IL5 production promoted by IL-33 (human IL33-his)” value amounted to 0.0755 µg/mL; the “Maximum inhibition rate, KU812-IL5 production by IL-33” value (“Maximum inhibition rate … by IL-33” for short) was 94.2%; the “Relative activity compared with CNTO7160, KU812-IL5 production by IL-33” value is 142%. Besides, in assay [10], the “IC50, inhibition of KU812-IL5 production promoted by oxidized IL33” value is 0.0173 µg/mL; the “Maximum inhibition rate, KU812-IL5 production by oxidized IL33” value was determined as 101%; the “Relative activity, KU812-IL5 production by oxidized IL33” value worked out at 127%. Also, the “kd ratio of pH 5.5/pH 7.4” value in assay [11] worked out at 1.43. Also, in assay [12], the “IC50, inhibition of activation of KU812-NF-κB reporter gene by IL33” value came to 0.0553 µg/mL; the “Maximum inhibition rate, KU812-NF-κB reporter gene” value worked out at 88.1%; the “Relative activity compared with CNTO7160, KU812-NF-κB reporter gene” value came to 362%. Also, in [13], the IC50 was 0.828 µg/mL, the Maximum inhibition rate was found to be 93.7% and the Relative activity compared with CNTO7160 was 152%. In [14], this molecule displayed a Kd of 131 pM, a koff of 0.000245 s⁻¹ and a kon of 1.87e+06 M⁻¹ s⁻¹.

B4: Control antibody CNTO7160 (antibody, human IgG4 S228P, kappa, V domains shown)
VH: EVQLLESGGGLVQPGGSLRLSCAASGFTFSIYDMIWVRQAPGKGLEWVSSIRGEGGGTYYADSVKGRFTISRDNSKNTLYLQMNSLRAEDTAVYYCARDPWSTEGSFFVLDYWGQGTLVTVSS
VL: EIVLTQSPATLSLSPGERATLSCRASQSVDDDLAWYQQKPGQAPRLLIYDASNRATGIPARFSGSGSGTDFTLTISSLEPEDFAVYYCQQYITAPLTFGQGTKVEIKR
notes: Known anti-ST2 control antibody
With B4, in assay [5], the “IC50, inhibition of HMC-1 IL8 production promoted by IL33” value is 0.101 µg/mL and the “Maximum inhibition rate, HMC-1 IL8 production by IL33” value amounted to 82.3%. For the same molecule, in assay [6], the “IC50, inhibition of KU812-IL5 production promoted by reduced IL33” value turned out to be 1.47 µg/mL; the “Maximum inhibition rate, KU812-IL5 production by reduced IL33” value worked out at 97.3%; the “Relative activity, KU812-IL5 production by reduced IL33” value is 100%. Further, in assay [7], the “IC50, inhibition of HUVEC-IL6 production promoted by IL33” value is 2.73 µg/mL; the “Maximum inhibition rate, HUVEC-IL6 production by IL33” value is 66.6%; the “Relative activity, HUVEC-IL6 production by IL33” value came to 100%. In [8], this molecule displayed a koff of 0.000175 s⁻¹ and a kon of 763000 M⁻¹ s⁻¹. Besides, the “Maximum inhibition rate … by IL-33” value in assay [9] amounted to 97.5%. Besides, in [10], the “IC50, inhibition of KU812-IL5 production promoted by oxidized IL33” value stood at 0.0221 µg/mL; the “Maximum inhibition rate, KU812-IL5 production by oxidized IL33” value turned out to be 98.9%; the “Relative activity, KU812-IL5 production by oxidized IL33” value was found to be 100%. In assay [11], the “kd ratio of pH 5.5/pH 7.4” value worked out at 1.53. For the same molecule, in assay [12], the “IC50, inhibition of activation of KU812-NF-κB reporter gene by IL33” value was determined as 0.2 µg/mL and the “Maximum inhibition rate, KU812-NF-κB reporter gene” value stood at 88.2%. Also, the Kd in assay [15] amounted to 229 pM. In assay [14], this molecule came in with a Kd of 395 pM, a koff of 0.000267 s⁻¹ and a kon of 676000 M⁻¹ s⁻¹.

B5: 5888-379-H2L2 (antibody, human IgG4 S228P, kappa, V domains shown)
VH: QVQLVQSGAEVKKPGASVKVSCKASGYTFINYGMNWVRQAPGQRLEWMGWINTYIGEPTYGDNFKGRVTITRDTSASTAYMELSSLRSEDTAVYYCAREGDAFAYWGQGTLVTVSS
VL: DIVMTQSPDSLAVSLGERATINCKSSQSLLYSGNQNNYLAWYQQKPGQPPKLLIYGASTRESGVPDRFSGSGSGTDFTLTISSLQAEDVAVYYCQNDHSYPYTFGGGTKVEIKR
notes: Humanized antibody
In assay [8], B5 returned a Kd of 515 pM, a koff of 0.000702 s⁻¹ and a kon of 1.36e+06 M⁻¹ s⁻¹. In assay [9], the “IC50, inhibition of KU812-IL5 production promoted by IL-33 (human IL33-his)” value was determined as 0.0948 µg/mL; the “Maximum inhibition rate … by IL-33” value stood at 97.9%; the “Relative activity compared with CNTO7160, KU812-IL5 production by IL-33” value came out at 107%. In addition, in [3], the IC50 is 0.402 µg/mL, the Maximum inhibition rate is 86% and the Relative activity compared with CNTO7160 was 219%. Besides, the “kd ratio of pH 5.5/pH 7.4” value in assay [11] was 38.4. Further, in assay [14], binding was put at a Kd of 2670 pM, the koff was 0.0269 s⁻¹ and the kon is 1.01e+07 M⁻¹ s⁻¹.

The values are drawn from US12624112 (MABWELL SHANGHAI BIOSCIENCE, dated 2026).
